Experimental data as given in PMC6555848.

The substances below were run against fluorescein-labeled phospho-Tyr peptide derived from the EPO receptor (FAM-GpYLVLDKW) (assay: fluorescence polarisation; 10 nM FAM-labelled peptide, increasing STAT5B protein; 20 mM HEPES, 50 mM NaCl, 0.1% NP-40 substitute, 10% DMSO; 1 h at room temperature; 1:1 model; pH of the Kd values printed in the text not stated (pH 6.8, 7.25, 7.5 or 7.9 were used)).

In order of rising Kd:
1. STAT5B^N642Q (from UniProt P51692 1-787) (natural protein)  229 nM
2. STAT5B^N642D (from UniProt P51692 1-787) (natural protein)  261 nM
3. STAT5B^N642A (from UniProt P51692 1-787) (natural protein)  612 nM
